Several values for one entry are separate records, joined by “and”; a condition that tells them apart may be missing. Equal values may be shown once. Read-outs that look alike come from different tables or passages of the source.
Experiments:
[1] = target: HIV-1 integrase F185K (pNY strain) (human immunodeficiency virus type-1 (pNY strain)); test: SEC
[2] = target: HIV-1 integrase F185K (pNY strain) (human immunodeficiency virus type-1 (pNY strain)); test: SEC; remark: listed apart in the source
[3] = target: wt HIV-1 integrase (pNY strain) (human immunodeficiency virus type-1 (pNY strain)); test: cross-linking
[4] = target: wt HIV-1 integrase (pNY strain) (human immunodeficiency virus type-1 (pNY strain)); test: cross-linking; remark: listed apart in the source
[5] = target: wt HIV-1 integrase (pNY strain) (human immunodeficiency virus type-1 (pNY strain)); test: SEC
[6] = target: wt Rous sarcoma virus integrase (286 residues) (Rous sarcoma virus); test: SEC
[7] = target: wt Rous sarcoma virus integrase (286 residues) (Rous sarcoma virus); test: SEC; remark: listed apart in the source

With “HIV-1 integrase F185K (pNY strain) (enzyme)” the percent converted to tetramers [1] was 65%, the stoichiometry N [1] was 2 and 4 and the stoichiometry N [2] was 2.

With “wt HIV-1 integrase (pNY strain) (enzyme)” the stoichiometry N [3] was 2, the stoichiometry N [4] was 2 and 3 and 4 and the stoichiometry N [5] was 4.

For “wt Rous sarcoma virus integrase (286 residues) (enzyme)”, the stoichiometry N [6] was 2 and 4 and the stoichiometry N [7] was 2 and 4.

Reference: article PMC3212032
